According to patent publication US20160348147A1, “SYSTEMS AND DEVICES FOR PROTEASE DETECTION BASED ON ENGINEERED POLYMERS AND BIOPOLYMERS AND METHODS OF USE” (DUKE UNIVERSITY, priority 2014, published 2016):
“And” between values parts separate entries of the source, which are not always exact repeats. Identical values can stand only once.

What was measured:
[1] = target: T1, MMP-1 (Homo sapiens, UniProt P03956); test: Kinetic study of MMP-1 cleavage (SDS-PAGE, Lineweaver-Burke plot); format: biochemical; details: substrate 25, 50, 100, 200 μM, enzyme 20 ng/mL, buffer, 40° C.
T1 construct: Human MMP-1 catalytic domain (recombinant, produced in E. coli, 19.9 kDa, >95% purity); purchased Enzo Life Sciences (Farmingdale, N.Y.); host or cells: E. coli
T1 sequence (P03956 100-269 limits assumed): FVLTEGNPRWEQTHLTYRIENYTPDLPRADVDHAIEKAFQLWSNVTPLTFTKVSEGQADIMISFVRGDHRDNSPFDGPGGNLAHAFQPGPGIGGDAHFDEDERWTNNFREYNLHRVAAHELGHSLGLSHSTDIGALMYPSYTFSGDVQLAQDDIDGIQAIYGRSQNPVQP
Protocol: We used mass spectrometry to examine the cleavage of the MMP-1 substrate peptide in the ELP-substrate fusion by measuring the molecular weight of the polypeptides prior to, and after incubation with MMP-1. We incubated 0.5 mL of 100 μM polypeptide in proteolysis buffer with 100 ng/mL of MMP-1 for 2 h at 25° C. […] For example, an enzymatic reaction can be written in general form as:
In which V0 is the initial rate of the enzymatic reaction at a given substrate concentration. Using equation Eq. 4, we can calculate Vmax by plotting 1/V0 versus 1/[S] at different substrate concentrations and a constant enzyme concentration and then calculate kcat by implementing equation Eq. 3.
We performed a series of kinetic studies in which the concentration of the substrate in the buffer solution was chosen to be 25, 50, 100, and 200 μM. We then added 20 ng/mL of enzyme to each of the solutions and kept all the solutions at a constant temperature (40′C). […] We quantified these changes by image analysis (ImageJ software) and used them to quantify the amount of product for each substrate concentration at each sampling time. We then calculated the initial rate of the reaction (V0) by using the concentration of the converted substrate and the time of reaction.
We then used equation Eq. 4 and plotted 1/[S] versus 1/[V0] […] From Vmax and equation Eq. 3, we calculated kcat to be equal to 8.0±1.9 s^−1. […]

[2] = Thermal behavior by optical turbidimetry and dynamic light scattering; format: physicochemical; details: 100 μM in buffer
Protocol: We confirmed the purity and molecular weight of the purified peptides by electrophoresis (10-20% gradient […] SDS-PAGE, Thermo Scientific, CA) and by matrix-assisted laser desorption/ionization mass spectrometry. Mass spectrometry samples were prepared by mixing the enzymatic reaction product with sinapinic acid in 1:10 ratio. 1 μL of the sample/matrix mixture was then loaded on the grid and the measurements were performed on a Voyager-DE-Pro instrument (Applied Biosystems, Germany). To determine the concentration of the ELP-substrate fusion solutions we used a calculated extinction coefficient (Gill, S. C. & Vonhippel, P. H. Analytical Biochemistry 1989, 182, 319-326) or lyophilized the polypeptide solution. We studied the thermal behavior of the ELP-substrate fusion constructs in both proteolysis buffer (see below) and diluted human serum in the presence and absence of MMP-1 using optical turbidimetry on a temperature-programmed UV-vis spectrometer (Cary 300, Agilent Technologies). To characterize the size of the micelles and aggregates, we used single angle dynamic light scattering (DLS; DynaPro, Protein Solution).
FIG. 2 presents optical densities at 350 nm (OD350) and hydrodynamic diameters of ELP-substrate fusion as a function of temperature prior to, and after, enzymatic reaction. […] These changes are consistent with the self-assembly of ELP-substrate fusions (unimers) into micelles as the temperature is raised above the CMT (Ghoorchian, A. et al., The Journal of Physical Chemistry. B 2013, 117, 8865-8874). We note that there is a slight local maximum in both the optical density and hydrodynamic diameter at temperatures slightly above the CMT, which has been observed previously (Hassouneh, W., Duke University, PhD thesis, 2013); the origin of this small peak is, as yet, unclear.

[3] = DLS, prior to enzymatic reaction

M(GVGVP)60GDGQVPMSMRGGDDEGQQDDEEGY (MGVGVPGDGQVPMSMRGGDDEGQQDDEEGY) [ELP-substrate fusion, recombinant polypeptide: ELP fused to MMP-1 substrate and charged hydrophilic peptide]
kcat [1]: 8.0 ± 1.9 s⁻¹
critical micellization temperature (CMT) ([2]; prior to enzymatic reaction): ≈ 38 °C and 38 °C
hydrodynamic diameter above Tt [2, 3]: ≈ 50 nm
hydrodynamic diameter below the CMT [2, 3]: < 10 nm
increase of OD350 as the solution is heated through the CMT ([2]; before enzymatic reaction): about 0.2 OD units
